In article PMC6065357 (2018) one finds Kd data, which are given here for one molecule.

This assay deals with T1, pro-brain-derived neurotrophic factor (proBDNF, residues 19-249, furin sites changed to AA) (UniProt P21237 19-249).
T1 chain: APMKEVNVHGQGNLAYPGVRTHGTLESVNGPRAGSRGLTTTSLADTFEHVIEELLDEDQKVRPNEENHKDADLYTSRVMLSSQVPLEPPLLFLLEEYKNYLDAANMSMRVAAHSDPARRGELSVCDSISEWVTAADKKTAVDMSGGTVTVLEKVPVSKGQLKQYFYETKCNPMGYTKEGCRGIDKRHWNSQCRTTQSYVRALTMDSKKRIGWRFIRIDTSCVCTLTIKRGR
Put plainly: SPR; second site of two-site fit, possibly sSorCS2 oligomerization. In general terms: Surface plasmon resonance follows binding to a sensor surface in real time, without labels.

In general, Kd refers to the free concentration of one partner at which half of the binding sites on the other are occupied at equilibrium, for simple one-to-one binding. The low end stands for a tighter complex, the high end for a looser complex.

B1: mouse SorCS2 mature extracellular segment (sSorCS2, residues 117-1072) (receptor)
chain: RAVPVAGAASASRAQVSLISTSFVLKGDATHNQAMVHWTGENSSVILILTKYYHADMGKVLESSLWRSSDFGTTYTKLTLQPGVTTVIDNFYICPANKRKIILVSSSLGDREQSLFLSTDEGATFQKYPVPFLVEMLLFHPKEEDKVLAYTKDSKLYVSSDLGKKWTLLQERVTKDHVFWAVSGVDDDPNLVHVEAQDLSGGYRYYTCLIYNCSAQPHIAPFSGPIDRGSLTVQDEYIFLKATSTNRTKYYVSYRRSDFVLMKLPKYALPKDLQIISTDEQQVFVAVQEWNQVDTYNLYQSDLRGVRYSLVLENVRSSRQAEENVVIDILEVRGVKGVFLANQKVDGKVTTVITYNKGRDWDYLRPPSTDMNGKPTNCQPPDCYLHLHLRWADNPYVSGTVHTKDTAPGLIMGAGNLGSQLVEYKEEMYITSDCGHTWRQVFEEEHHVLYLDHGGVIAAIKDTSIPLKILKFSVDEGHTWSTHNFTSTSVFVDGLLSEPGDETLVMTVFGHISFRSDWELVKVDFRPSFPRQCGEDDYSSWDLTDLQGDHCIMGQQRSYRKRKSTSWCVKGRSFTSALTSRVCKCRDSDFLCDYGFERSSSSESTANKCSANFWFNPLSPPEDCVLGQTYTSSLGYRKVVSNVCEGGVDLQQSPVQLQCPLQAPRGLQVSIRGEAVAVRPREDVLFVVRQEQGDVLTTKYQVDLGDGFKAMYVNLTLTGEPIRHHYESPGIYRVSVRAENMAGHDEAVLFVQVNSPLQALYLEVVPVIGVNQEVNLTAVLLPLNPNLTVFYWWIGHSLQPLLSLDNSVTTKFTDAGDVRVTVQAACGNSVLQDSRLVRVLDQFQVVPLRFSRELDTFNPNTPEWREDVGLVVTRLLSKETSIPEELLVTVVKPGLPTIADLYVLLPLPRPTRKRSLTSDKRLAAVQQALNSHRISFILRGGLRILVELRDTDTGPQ
B1: the Kd was around 30 µM.
